B1: nanobody W2812 (VHH)
VHH: QVQLQESGGGLVQPGGSLRLSCAASGRTFSSYMMAWFRQSQGNERELVAGLTRSGVSAYYADSVKGRFTISRDNAKNTVYLQMNSLKPKDTAVYYCAAASTTYINHIYTNPSNYPHWGPGTQVTVSS
B2: recombinant Pfs230 D13D14 (K2828-E3111) (domain or fragment)
chain: KTIGKDICKYDVTTKVATCEIIDTIDSSVLKEHHTVHYSITLSRWDKLIIKYPTNEKTHFENFFVNPFNLKDKVLYNYNKPINIEHILPGAITTDIYDTRTKIKQYILRIPPYVHKDIHFSLEFNNSLSLTKQNQNIIYGNVAKIFIHINQGYKEIHGCDFTGKYSHLFTYSKKPLPNDDDICNVTIGNNTFSGFACLSHFELKPNNCFSSVYDYNEANKVKKLFDLSTKVELDHIKQNTSGYTLSYIIFNKESTKLKFSCTCSSNYSNYTIRITFDPNYIIPE
B3: nanobody W2810 (VHH)
VHH: QVQLQESGGGLVQAGGSLRLSCAASGRTFSSYAMGWFHQAPGKEREFVASISWSGGSIRYADSVKGRFTVSRDNAKNTAYLQMNSLKPEDTGVYYCAAGPYSSDYGGFGSWGQGTQVTVSS

Experiments:
[1] = biological target: B2; test: BLI
[2] = biological target: W2811; test: BLI

Binder | Kd [1] | Kd [2]
B1 | 1.55 nM | –
B2 | – | 5.12 nM
B3 | 4.8 nM | –

Source: doi:10.1101/2025.02.13.638205 (2025)
